Experiments:
human L1CAM on cells [1] = target: T1, human L1CAM on cells (human, UniProt P32004 20-1257); assay: flow cytometry, MDA-MB-231 cells
T1 construct: Overexpressed on stably transfected HEK293T cells or endogenous on MCF-7 and MDA-MB-231 cells; also called HEK293T-hL1CAM
Experimental: (§1) Binding Analysis. […] Dissociation constants (KD) for binding to soluble human and cynomolgus monkey L1CAM-His were determined using biolayer interferometry (BLI). In addition, EC50 values for binding to cell-bound L1CAM were established by flow cytometry using HEK293T/FT cells overexpressing human or mouse L1CAM, MCF-7 cells, and MDA-MB-231 cells. In addition, the epitope regions of the mAbs were determined by BLI interaction analysis with L1CAM subdomains (Ig and FN) expressed individually, and by a BLI competition experiment to identify epitope bins.

[2] = target: T2, mouse L1CAM on transiently transfected HEK293FT cells (mouse, UniProt P11627 20-1260); assay: flow cytometry, HEK293FT cells transfected with mouse L1CAM
T2 construct: whole, on cells; also called mouse L1CAM on cells
T2 sequence (P11627 20-1260): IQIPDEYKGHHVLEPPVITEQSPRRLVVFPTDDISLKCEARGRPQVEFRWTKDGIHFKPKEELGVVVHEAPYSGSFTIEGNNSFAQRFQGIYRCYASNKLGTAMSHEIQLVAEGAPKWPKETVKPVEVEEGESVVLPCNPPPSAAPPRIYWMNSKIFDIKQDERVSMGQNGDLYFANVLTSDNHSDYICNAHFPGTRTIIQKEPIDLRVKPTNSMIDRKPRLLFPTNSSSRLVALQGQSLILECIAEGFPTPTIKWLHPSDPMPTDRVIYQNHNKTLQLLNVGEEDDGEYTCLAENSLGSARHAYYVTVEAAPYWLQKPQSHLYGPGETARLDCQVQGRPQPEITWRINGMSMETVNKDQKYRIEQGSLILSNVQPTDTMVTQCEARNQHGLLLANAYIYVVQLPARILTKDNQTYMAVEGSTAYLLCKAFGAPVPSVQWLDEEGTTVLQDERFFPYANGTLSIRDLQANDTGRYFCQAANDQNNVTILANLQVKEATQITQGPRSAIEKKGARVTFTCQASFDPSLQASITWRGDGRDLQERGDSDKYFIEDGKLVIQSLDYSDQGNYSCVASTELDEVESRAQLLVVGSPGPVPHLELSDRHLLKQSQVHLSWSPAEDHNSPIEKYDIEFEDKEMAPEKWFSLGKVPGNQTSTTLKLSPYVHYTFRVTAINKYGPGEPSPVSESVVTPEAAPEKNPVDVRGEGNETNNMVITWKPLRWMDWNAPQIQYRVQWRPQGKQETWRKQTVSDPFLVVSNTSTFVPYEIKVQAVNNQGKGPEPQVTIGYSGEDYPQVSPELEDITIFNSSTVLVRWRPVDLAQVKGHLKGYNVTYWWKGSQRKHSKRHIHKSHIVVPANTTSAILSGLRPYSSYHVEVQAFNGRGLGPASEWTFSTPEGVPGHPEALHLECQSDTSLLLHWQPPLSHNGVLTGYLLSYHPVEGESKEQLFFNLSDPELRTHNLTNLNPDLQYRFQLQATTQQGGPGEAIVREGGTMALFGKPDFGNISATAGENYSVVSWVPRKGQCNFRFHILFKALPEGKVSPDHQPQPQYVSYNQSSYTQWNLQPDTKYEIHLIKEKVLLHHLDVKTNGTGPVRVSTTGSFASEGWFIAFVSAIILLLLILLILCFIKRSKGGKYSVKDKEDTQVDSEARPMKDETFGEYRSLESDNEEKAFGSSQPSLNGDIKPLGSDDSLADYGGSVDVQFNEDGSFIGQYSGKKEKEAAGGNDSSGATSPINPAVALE

[3] = target: T3, extracellular domain of human L1CAM (isoform 1) fused to a poly-histidine tag via its carboxy terminus (human, UniProt P32004 20-1120); assay: BLI, soluble human L1CAM-His
T3 construct: Bought (Creative Biomart); also called L1CAM-His; huL1CAM protein
T3 sequence (P32004 20-1120): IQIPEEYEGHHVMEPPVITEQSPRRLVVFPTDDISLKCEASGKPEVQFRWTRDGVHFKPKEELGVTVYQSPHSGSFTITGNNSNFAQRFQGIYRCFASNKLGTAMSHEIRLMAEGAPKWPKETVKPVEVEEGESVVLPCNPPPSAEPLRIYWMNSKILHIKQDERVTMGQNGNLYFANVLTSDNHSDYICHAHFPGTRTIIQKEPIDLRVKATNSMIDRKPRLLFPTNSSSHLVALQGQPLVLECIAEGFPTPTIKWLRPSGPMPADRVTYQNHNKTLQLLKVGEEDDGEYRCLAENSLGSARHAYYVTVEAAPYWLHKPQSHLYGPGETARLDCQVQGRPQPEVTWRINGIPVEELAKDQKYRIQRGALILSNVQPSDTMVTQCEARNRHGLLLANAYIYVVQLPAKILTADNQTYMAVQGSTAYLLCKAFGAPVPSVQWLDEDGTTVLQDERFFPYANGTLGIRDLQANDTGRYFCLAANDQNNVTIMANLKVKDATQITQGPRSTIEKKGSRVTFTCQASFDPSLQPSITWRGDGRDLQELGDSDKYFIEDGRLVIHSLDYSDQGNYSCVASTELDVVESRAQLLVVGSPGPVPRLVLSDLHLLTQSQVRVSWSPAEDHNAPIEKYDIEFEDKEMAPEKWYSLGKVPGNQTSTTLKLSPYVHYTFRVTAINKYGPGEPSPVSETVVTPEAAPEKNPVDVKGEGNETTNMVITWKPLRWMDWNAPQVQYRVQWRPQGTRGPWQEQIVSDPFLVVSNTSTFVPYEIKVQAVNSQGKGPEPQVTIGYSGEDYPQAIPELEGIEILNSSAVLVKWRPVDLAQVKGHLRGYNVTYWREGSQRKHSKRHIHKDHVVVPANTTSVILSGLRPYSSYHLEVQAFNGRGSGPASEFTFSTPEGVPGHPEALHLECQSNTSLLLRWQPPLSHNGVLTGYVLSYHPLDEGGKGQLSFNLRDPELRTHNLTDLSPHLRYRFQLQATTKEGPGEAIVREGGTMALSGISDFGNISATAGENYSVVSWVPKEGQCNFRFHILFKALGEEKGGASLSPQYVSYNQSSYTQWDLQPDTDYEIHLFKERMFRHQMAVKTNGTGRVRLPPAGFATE
Experimental: as §1

human L1CAM on cells [4] = target: T1, human L1CAM on cells; assay: FACS on cells expressing L1CAM (293FT or MDA-MB-231; the table does not say which)
Experimental: Briefly, CDR-grafted heavy and light chains were expressed in various combinations and the antigen-binding properties were evaluated.

human L1CAM on cells [5] = target: T1, human L1CAM on cells; assay: flow cytometry, HEK293T cells overexpressing human L1CAM
Experimental: as §1

human L1CAM on cells [6] = target: T1, human L1CAM on cells; assay: flow cytometry, MCF-7 cells
Experimental: as §1

[7] = target: T4, soluble cynomolgus monkey L1CAM, His-tagged, monomeric (cynomolgus monkey, UniProt A0A2K5URB5 20-1120); assay: BLI, soluble cynomolgus L1CAM-His
T4 construct: also called cyL1CAM protein; cynomolgus L1CAM-His
Experimental: as §1

human L1CAM on cells [8] = target: T1, human L1CAM on cells; assay: cell-based or functional assay
[9] = target: T5, recombinant L1CAM-Fc fusion protein (human, UniProt P32004 20-1120); assay: BLI, L1CAM-Fc on AHC biosensors, Fab 3-200 nM, 1:1 fit
T5 construct: also called recombinant L1CAM protein; not shown: human Fc fused to the carboxy terminus
T5 sequence (P32004 20-1120): as above
Experimental: Here, recombinant L1CAM-Fc fusion protein was immobilized onto anti-Human IgG Fc Capture (AHC) biosensors and binding of Fabs was measured kinetically over a 3-200 nM concentration range. Kinetic data were fitted to a 1:1 binding model to compute association (kₒₙ) and dissociation (koff) rate constants, in addition to equilibrium dissociation constants (KD) as shown in Table 87.

[10] = target: T3, extracellular domain of human L1CAM …; assay: BLI, soluble human L1CAM-His; off-rate below detection limit

T1 sequence (P32004 20-1257): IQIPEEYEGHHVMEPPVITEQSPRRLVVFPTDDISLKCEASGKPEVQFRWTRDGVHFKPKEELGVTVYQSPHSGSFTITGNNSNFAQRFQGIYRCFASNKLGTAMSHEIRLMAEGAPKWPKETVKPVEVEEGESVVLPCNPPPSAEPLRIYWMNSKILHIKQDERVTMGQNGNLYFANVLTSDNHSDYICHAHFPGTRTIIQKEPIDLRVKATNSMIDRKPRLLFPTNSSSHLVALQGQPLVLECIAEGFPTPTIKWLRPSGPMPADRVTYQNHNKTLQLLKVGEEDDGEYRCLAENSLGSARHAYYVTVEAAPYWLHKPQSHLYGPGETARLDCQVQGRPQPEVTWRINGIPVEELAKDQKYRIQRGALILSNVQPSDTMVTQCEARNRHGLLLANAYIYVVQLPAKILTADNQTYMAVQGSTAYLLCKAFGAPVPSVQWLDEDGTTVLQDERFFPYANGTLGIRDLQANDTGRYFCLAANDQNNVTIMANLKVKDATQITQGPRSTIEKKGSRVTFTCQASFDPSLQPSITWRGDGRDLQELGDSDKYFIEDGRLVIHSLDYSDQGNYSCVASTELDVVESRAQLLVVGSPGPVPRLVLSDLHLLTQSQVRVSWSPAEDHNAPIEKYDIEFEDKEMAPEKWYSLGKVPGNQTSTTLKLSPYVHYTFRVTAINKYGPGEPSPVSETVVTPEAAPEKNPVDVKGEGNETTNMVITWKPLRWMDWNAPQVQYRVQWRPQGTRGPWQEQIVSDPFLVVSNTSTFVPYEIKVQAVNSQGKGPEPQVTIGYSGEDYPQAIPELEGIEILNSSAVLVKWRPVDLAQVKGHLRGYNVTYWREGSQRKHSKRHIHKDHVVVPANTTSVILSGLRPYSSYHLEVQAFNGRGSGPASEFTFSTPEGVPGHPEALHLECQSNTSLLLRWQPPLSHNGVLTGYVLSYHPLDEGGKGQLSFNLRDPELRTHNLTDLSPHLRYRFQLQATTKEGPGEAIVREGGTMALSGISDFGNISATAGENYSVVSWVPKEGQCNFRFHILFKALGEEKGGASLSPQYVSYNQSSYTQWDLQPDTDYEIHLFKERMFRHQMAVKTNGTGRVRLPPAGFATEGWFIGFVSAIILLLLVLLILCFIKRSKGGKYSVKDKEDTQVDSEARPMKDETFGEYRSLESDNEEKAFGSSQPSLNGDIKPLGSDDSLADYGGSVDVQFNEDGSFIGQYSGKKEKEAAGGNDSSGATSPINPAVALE

| Binder | EC50 (human L1CAM on cells [1]) | binding result [2] | Kd [3] | EC50 (human L1CAM on cells [5]) | EC50 (human L1CAM on cells [6]) | Kd [7] | further results |
| --- | --- | --- | --- | --- | --- | --- | --- |
| 143G03 (antibody, V domains shown, mAb from wild-type mice; also called 143G03 WT; murine 143G03 mAb) VH: QVQLRQSGAELVRPGTSVKMSCKASGYTFTNYYIHWVKQRPGQGLEWIGKIGPGSGSPYYNGMFKDKATLTVDTSSSTAYMQLSSLTSEDSAVYFCARWLLPFDYWGQGTTLTVSS VL: QIVLSQSPGILSASPGEKVTMTCRASSSVNYMHWYQQKSGSSPKPWIFATSILASGVPPRFSGSGSGTSYSLTISSVEAEDTATYYCQQFSSDPLTFGAGTKLELK | 0.9 nM | no binding | 0.12 nM | 1 nM | 0.35 nM | 0.34 nM | EC50 (human L1CAM on cells [4]): 0.85 nM |
| Ch143G03-GF (antibody, V domains shown, read as chimeric 143G03 (murine variable regions of 143G03, human constant regions). '-GF' is not explained) VH: QVQLRQSGAELVRPGTSVKMSCKASGYTFTNYYIHWVKQRPGQGLEWIGKIGPGSGSPYYNGMFKDKATLTVDTSSSTAYMQLSSLTSEDSAVYFCARWLLPFDYWGQGTTLTVSS VL: QIVLSQSPGILSASPGEKVTMTCRASSSVNYMHWYQQKSGSSPKPWIFATSILASGVPPRFSGSGSGTSYSLTISSVEAEDTATYYCQQFSSDPLTFGAGTKLELK |  |  |  |  |  |  | EC50 (human L1CAM on cells [4]): 0.727 nM |
| 15G02 (antibody, V domains shown, mAb from AlivaMab mice, purified from hybridoma supernatant) VH: EVQLVESGGGLVQPGGSLRLSCGVSGFTFSHYWMNWVRQAPGKGLEWVANIMQDGSEKYYVDSVKGRFTISRDNAKNSLYLQMNSLRVEDTAVYYCARDRGVTTLFDYWGQGILVTVSS VL: not shown | 0.98 nM | no binding | 0.58 nM | 2.6 nM | 1 nM | 0.93 nM |  |
| TDI-Y-004 ADC with PNU-159682 and a cleavable Glu-Val-Cit linker (antibody, human IgG1, kappa, V domains shown, ThioBridge linker-payload on the interchain disulfide cysteine; ThioBridge-Glu[-Glu(OH)-Val-Cit-PAB-DMEA-PNU159682]-PEG(24) rebridging the reduced interchain disulfide cysteines; average DAR about 4) VH: QVQLVQSGAEVKKPGSSVKVSCKASGYTFTNYYIHWVRQAPGQGLEWMGKIGPGSGSPYYQGMFKDRVTITADESTSTAYMELSSLRSEDTAVYYCARWLLPFDYWGQGTLVTVSS VL: EIVLTQSPGTLSLSPGERATLSCRASSSVNYMHWYQQKPGQAPRLLIYATSILASGIPDRFSGSGSGTDYTLTISRLEPEDFAVYYCQQFSSDPLTFGGGTKVEIKR |  |  |  |  |  |  | EC50 of cytotoxicity, HEK293T-hL1CAM cells (CellTiterGlo, 96 hours) (human L1CAM on cells [8]): 0.008 nM; EC50 of cytotoxicity, MCF-7 cells (CellTiterGlo, 96 hours) (human L1CAM on cells [8]): 0.03 nM; EC50 of cytotoxicity, MDA-MB-231 cells (CellTiterGlo, 96 hours) (human L1CAM on cells [8]): 3.3 nM |
| TDI-Y-005 ADC with PNU-159682 and a cleavable Glu-Val-Cit linker (antibody, human IgG1, kappa, V domains shown, ThioBridge linker-payload on the interchain disulfide cysteine; ThioBridge-Glu[-Glu(OH)-Val-Cit-PAB-DMEA-PNU159682]-PEG(24) rebridging the reduced interchain disulfide cysteines; average DAR about 4) VH: EVQMVESGGGLVQPGGSLRLSCAAPGFIFSSYNMNWVRQAPGKGLEWVSYISSSSSTTYYADSVKGRFTISRDNAKNSLYLQMNSLRDEDTAVYYCASLYSGYDYYYYYGMDVWGQGTTVTVSS VL: DIVMTQTPLSSPVSLGQPASISCRSSQSLVHSDGNTYLSWLQQRPGQPPRVLIYKISKRFSGVPDRFSGSGAGTDFTLKISRVEAEDVGVYYCMQATQFPFTFGPGTKVDIKR |  |  |  |  |  |  | EC50 of cytotoxicity, HEK293T-hL1CAM cells (CellTiterGlo, 96 hours) (human L1CAM on cells [8]): 0.03 nM; EC50 of cytotoxicity, MCF-7 cells (CellTiterGlo, 96 hours) (human L1CAM on cells [8]): 0.4 nM; EC50 of cytotoxicity, MDA-MB-231 cells (CellTiterGlo, 96 hours) (human L1CAM on cells [8]): 12.4 nM |
| hu14A10 (antibody, V domains shown) VH: EVQMVESGGGLVQPGGSLRLSCAAPGFIFSSYNMNWVRQAPGKGLEWVSYISSSSSTTYYADSVKGRFTISRDNAKNSLYLQMNSLRDEDTAVYYCASLYSGYDYYYYYGMDVWGQGTTVTVSS VL: DIVMTQTPLSSPVSLGQPASISCRSSQSLVHSDGNTYLSWLQQRPGQPPRVLIYKISKRFSGVPDRFSGSGAGTDFTLKISRVEAEDVGVYYCMQATQFPFTFGPGTKVDIK |  |  |  |  |  |  | EC50 (human L1CAM on cells [4]): 5.93 nM |
| 14A10 (antibody, V domains shown, mAb from AlivaMab mice) VH: EVQMVESGGGLVQPGGSLRLSCAAPGFIFSSYNMNWVRQAPGKGLEWVSYISSSSSTTYYADSVKGRFTISRDNAKNSLYLQMNSLRDEDTAVYYCASLYSGYDYYYYYGMDVWGQGTTVTVSS VL: DIVMTQTPLSSPVSLGQPASISCRSSQSLVHSDGNTYLSWLQQRPGQPPRVLIYKISKRFSGVPDRFSGSGAGTDFTLKISRVEAEDVGVYYCMQATQFPFTFGPGTKVDIK | 8.9 nM |  | 1.2 nM | 3.5 nM | 5.3 nM | 3.2 nM | EC50 [2]: 5.6 nM |
| 76H12 Fab construct 2 (humanized) (Fab, V domains shown, also called Fab 2) VH: QVQLVQSGAEVKKPGASVKVSCKASGYTFTSYWMHWVRQAPGQGLEWMGNVYPGSGSTKYAQKFQGRVTMTRDTSTSTVYMELSSLRSEDTAVYYCARPGNYEGFAYWGQGTLVTVSS VL: NIQLTQSPSSLSASVGDRVTITCRASESVDSYGSSFMHWYQQKPGKPPKLLIYLASNLESGVPSRFSGSGSGTDFTLTISSLQPEDFATYYCQQNNEDPWTFGQGTKLEIK |  |  |  |  |  |  | Kd [9]: 88.8 nM; koff [9]: 0.0706 s⁻¹; kon [9]: 797000 M⁻¹ s⁻¹ |
| 13F04 (antibody, V domains shown, mAb from wild-type mice, purified from the supernatant of a hybridoma clone; also called L1CAM mAb 13F04) VH: QVQLQQPGAELVKPGASVKLSCKASGYIFISYWMHWVKQRPGQGLEWIGEINPRNGRTNYNEKFKSKATLTVDKSSSTAYMQLTSLTSEDSAVYYCARGGDYGGSFDYWGQGTTLTVSS VL: DIVLTQSPASLAVSLGQRATISCRASESVDSYGNSFMHWYQQKPGQPPKLLIYRASNLESGIPARFSGSGSRTDFTLTVNPVEADDVATYYCQQSNEDPWTFGGGTKLEIK | 1.7 nM | no binding | 1.13 nM | 4 nM | 1.2 nM | 19.8 nM |  |
| 76H12 Fab construct 1 (chimeric; parental mouse 76H12 V-regions) (Fab, V domains shown, also called Fab 1; chimeric 76H12 Fab) VH: QVQLQQPGSDLVRPGTSVKLSCKASGYTFTSYWMHWVKQRPGQGLEWIGNVYPGSGSTKYDEKFKTKATLTVDTSSNTAYMELSSLTSEDSAVYYCTRPGNYEGFAYWGQGTLVTVSA VL: NIVLTQSPASLAVSLGQRATISCRASESVDSYGSSFMHWYQQKPGQPPKLLIYLASNLESGVPARFSGSGSRTDFTLTIDPVEADDAATYYCQQNNEDPWTFGGGTKLEIK |  |  |  |  |  |  | Kd [9]: 39.6 nM; koff [9]: 0.0232 s⁻¹; kon [9]: 586000 M⁻¹ s⁻¹ |
| 13G04 (antibody, V domains shown, mAb from AlivaMab mice, purified from hybridoma supernatant) VH: QVQLVQSGAEVKKPGASVKVSCKASGYTFIGYYLHWVRQAPGQGLEWMGWINPNSGGTNSAQKFQGRVTMTRDTSISTTYMDLSRLRSDDTAVYYCARGGLERRDAFDIWGQGTLVTVSS VL: DIQMTQSPSTLSASVGDRVTITCRASQSISNWLAWYQQKPGKAPNLLIYKASSLESGVPSRFSGSGSGTEFTLTISSLQPDDFATYYCQQYDTYRTFGQGTKVEIK | 6.7 nM | no binding |  | 4.8 nM | 4.8 nM | 3.2 nM | Kd [10]: < 0.02 nM |
| 04B06 (antibody, V domains shown, mAb from AlivaMab mice (human immunoglobulin repertoire), purified from hybridoma supernatant) VH: QVQLQESGPGLVKPSETLSLTCTVSGGSINSYYWSWIRQPAGKGLEWIGRFYTSGSTNHNPSLKSRVTMSVDTSKNQFSLKLTSVTAADTAVYYCAREWSGSFYGGDAFDIWGQGTMVTVSS VL: not shown | 9.6 nM | no binding | 0.07 nM | 2.3 nM | 1.1 nM | 0.6 nM |  |

Source: patent US20250340636A1 (Memorial Sloan Kettering, published 2025)
